Source: patent publication US20160264649A1

Columns and labels:
Experiment in all cases: cell-based or functional assay
[1] = target: HIV-1 Env of isolate MGRM-D-024 (subtype D) (HIV-1)
[2] = target: HIV-1 Env of pseudovirus isolate MGRM-G-025 (subtype G) (HIV-1)
[3] = target: HIV-1 Env of isolate 93UG077 (subtype A) (HIV-1)
[4] = target: HIV-1 Env of isolate 92WR026 (subtype A) (HIV-1)
[5] = target: HIV-1 Env of pseudovirus isolate MGRM-G-017 (subtype G) (HIV-1)
[6] = target: HIV-1 Env of pseudovirus isolate MGRM-G-006 (subtype G) (HIV-1)
[7] = target: HIV-1 Env of isolate CAAN.A2 (subtype B) (HIV-1)
[8] = target: HIV-1 Env of pseudovirus isolate MGRM-G-015 (subtype G) (HIV-1)
[9] = target: HIV-1 Env of isolate JRFL (subtype B) (HIV-1)
[10] = target: HIV-1 Env of isolate QH0692.42 (subtype B) (HIV-1)
[11] = target: HIV-1 Env of isolate MGRM-Chronic-B-002 (subtype B) (HIV-1)
[12] = target: envelope of aMLV pseudovirus (negative control)
[13] = target: HIV-1 Env of isolate 92UG046 (subtype D) (HIV-1)
[14] = target: HIV-1 Env of pseudovirus isolate MGRM-G-019 (subtype G) (HIV-1)
[15] = target: HIV-1 Env of isolate MGRM-F1-012 (subtype F) (HIV-1)
[16] = target: HIV-1 Env of isolate MGRM-D-029 (subtype D) (HIV-1)
[17] = target: HIV-1 Env of isolate MGRM-F1-023 (subtype F) (HIV-1)
[18] = target: HIV-1 Env of isolate MGRM-F1-021 (subtype F) (HIV-1)
[19] = target: HIV-1 Env of isolate MGRM-D-019 (subtype D) (HIV-1)
[20] = target: HIV-1 Env of isolate MGRM-D-021 (subtype D) (HIV-1)
[21] = target: HIV-1 Env of isolate 92 BR 020 (subtype B) (HIV-1)
[22] = target: HIV-1 Env of isolate VLGCB3 (subtype B) (HIV-1)
[23] = target: HIV-1 Env of isolate APV_13 (subtype B) (HIV-1)
[24] = target: HIV-1 Env of pseudovirus isolate MGRM-G-004 (subtype G) (HIV-1)
[25] = target: HIV-1 Env of isolate MGRM-F1-014 (subtype F) (HIV-1)
[26] = target: HIV-1 Env of isolate MGRM-D-022 (subtype D) (HIV-1)
[27] = target: HIV-1 Env of isolate MGRM-Chronic-B-011 (subtype B) (HIV-1)
[28] = target: HIV-1 Env of isolate MGRM-F1-017 (subtype F) (HIV-1)
[29] = target: HIV-1 Env of isolate MGRM-F1-022 (subtype F) (HIV-1)
[30] = target: HIV-1 Env of isolate MG RM-C-022 (subtype C) (HIV-1)
[31] = target: HIV-1 Env of isolate SC422661.8 (subtype B) (HIV-1)
[32] = target: HIV-1 Env of isolate MG RM-C-020 (subtype C) (HIV-1)
[33] = target: HIV-1 Env of isolate MGRM-Chronic-B-020 (subtype B) (HIV-1)
[34] = target: HIV-1 Env of isolate MGRM-D-005 (subtype D) (HIV-1)
[35] = target: HIV-1 Env of isolate 98CN009 (subtype CRF07_BC) (HIV-1)
[36] = target: HIV-1 Env of isolate MGRM-F1-015 (subtype F) (HIV-1)
[37] = target: HIV-1 Env of isolate MGRM-Chronic-B-003 (subtype B) (HIV-1)
[38] = target: HIV-1 Env of isolate MGRM-D-018 (subtype D) (HIV-1)
[39] = target: HIV-1 Env of isolate MGRM-F1-008 (subtype F) (HIV-1)
[40] = target: HIV-1 Env of isolate 98CN006 (subtype CRF08_BC) (HIV-1)
[41] = target: HIV-1 Env of isolate MGRM-AE-006 (subtype AE) (HIV-1)
[42] = target: HIV-1 Env of isolate CMU02 (subtype AE) (HIV-1)
[43] = target: HIV-1 Env of pseudovirus isolate MGRM-G-013 (subtype G) (HIV-1)
[44] = target: HIV-1 Env of isolate MGRM-D-002 (subtype D) (HIV-1)
[45] = target: HIV-1 JR-CSF Env (wild-type) (HIV-1) (UniProt P20871)
[46] = target: HIV-1 ADA Env (HIV-1)

1443_C16 (PG16) (TCN-116) (antibody), sequence (VH): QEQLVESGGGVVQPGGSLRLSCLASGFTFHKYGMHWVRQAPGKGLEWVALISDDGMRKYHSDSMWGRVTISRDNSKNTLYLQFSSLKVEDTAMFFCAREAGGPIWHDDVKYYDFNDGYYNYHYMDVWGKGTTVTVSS
1443_C16 (PG16) (TCN-116) (antibody), sequence (VL): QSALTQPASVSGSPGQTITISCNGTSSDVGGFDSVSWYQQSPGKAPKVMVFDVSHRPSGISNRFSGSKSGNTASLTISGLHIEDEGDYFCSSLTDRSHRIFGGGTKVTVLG

PGV04 (antibody) was tested, and the IC50 (pseudovirus neutralization) [1] was over 50 µg/mL, the IC50 [2] was 1.61 µg/mL and the IC50 (pseudovirus neutralization) [3] was 0.083 µg/mL. For the same substance, the IC50 (pseudovirus neutralization) [4] was 0.14 µg/mL, the IC50 [5] was 0.065 µg/mL and the IC50 [6] was 0.083 µg/mL. It also gave an IC50 [7] of 2.26 µg/mL, an IC50 [8] of 0.333 µg/mL and an IC50 [9] of 0.032 µg/mL. It also gave an IC50 [10] of 1.9 µg/mL, an IC50 [11] of 0.142 µg/mL and an IC50 [12] of over 50 µg/mL. The IC50 (neutralization) [13] was 22.4 µg/mL, the IC50 [14] was 0.027 µg/mL and the IC50 (pseudovirus neutralization) [15] was 0.25 µg/mL. The IC50 (pseudovirus neutralization) [16] was 1.56 µg/mL, the IC50 (pseudovirus neutralization) [17] was 0.171 µg/mL and the IC50 (pseudovirus neutralization) [18] was 0.031 µg/mL. The IC50 (pseudovirus neutralization) [19] was 0.35 µg/mL, the IC50 (pseudovirus neutralization) [20] was over 50 µg/mL and the IC50 [21] was 0.25 µg/mL. It also gave an IC50 (µg/mL), pseudovirus neutralization [22] of 0.045 µg/mL, an IC50 [23] of 1.23 µg/mL and an IC50 [24] of over 50 µg/mL. The IC50 (pseudovirus neutralization) [25] was 0.02 µg/mL, the IC50 (pseudovirus neutralization) [26] was over 50 µg/mL and the IC50 [27] was 0.497 µg/mL. It also gave an IC50 (pseudovirus neutralization) [28] of 2.38 µg/mL, an IC50 (pseudovirus neutralization) [29] of 0.072 µg/mL and an IC50 (µg/mL), pseudovirus neutralization [30] of 18.3 µg/mL. It also gave an IC50 [31] of 0.11 µg/mL, an IC50 (µg/mL), pseudovirus neutralization [32] of 0.112 µg/mL and an IC50 [33] of 1.26 µg/mL. It also gave an IC50 (pseudovirus neutralization) [34] of over 50 µg/mL, an IC50 (neutralization) [35] of 0.0125 µg/mL and an IC50 (pseudovirus neutralization) [36] of 0.179 µg/mL. The IC50 [37] was 0.258 µg/mL, the IC50 (pseudovirus neutralization) [38] was 17.5 µg/mL and the IC50 (pseudovirus neutralization) [39] was 1.03 µg/mL. For the same substance, the IC50 (neutralization) [40] was 1.32 µg/mL, the IC50 (pseudovirus neutralization) [41] was over 50 µg/mL and the IC50 (pseudovirus neutralization) [42] was 1.24 µg/mL. The IC50 [43] was 0.168 µg/mL and the IC50 (pseudovirus neutralization) [44] was 0.322 µg/mL.

Substance 1443_C16 (PG16) (TCN-116) (antibody) has an IC50, TZM-bl pseudovirus neutralization [45] of 0.001 µg/mL and an IC50, TZM-bl pseudovirus neutralization [46] of 0.004 µg/mL.

Substance VRC01 (antibody) has an IC50 (pseudovirus neutralization) [1] of 0.366 µg/mL, an IC50 [2] of 0.292 µg/mL and an IC50 (pseudovirus neutralization) [3] of 0.097 µg/mL. The IC50 [5] was 0.124 µg/mL, the IC50 [6] was 0.055 µg/mL and the IC50 [7] was 0.722 µg/mL. It also gave an IC50 [8] of 0.548 µg/mL, an IC50 [9] of 0.034 µg/mL and an IC50 [10] of 1.19 µg/mL. The IC50 [11] was 0.117 µg/mL, the IC50 [12] was over 50 µg/mL and the IC50 (neutralization) [13] was 12.7 µg/mL. It also gave an IC50 [14] of 0.06 µg/mL, an IC50 (pseudovirus neutralization) [15] of 0.488 µg/mL and an IC50 (pseudovirus neutralization) [16] of 3.22 µg/mL. For the same substance, the IC50 (pseudovirus neutralization) [17] was 0.392 µg/mL, the IC50 (pseudovirus neutralization) [18] was 0.039 µg/mL and the IC50 (pseudovirus neutralization) [19] was 0.119 µg/mL. It also gave an IC50 (pseudovirus neutralization) [20] of 33.4 µg/mL, an IC50 [21] of 0.29 µg/mL and an IC50 [22] of 0.108 µg/mL. It also gave an IC50 [23] of 0.657 µg/mL, an IC50 [24] of over 50 µg/mL and an IC50 (pseudovirus neutralization) [25] of 0.056 µg/mL. For the same substance, the IC50 (pseudovirus neutralization) [26] was over 50 µg/mL, the IC50 [27] was 0.587 µg/mL and the IC50 (pseudovirus neutralization) [28] was 1.08 µg/mL. The IC50 (pseudovirus neutralization) [29] was 0.055 µg/mL, the IC50 [30] was 13 µg/mL and the IC50 [31] was 0.179 µg/mL. The IC50 [32] was 0.396 µg/mL, the IC50 [33] was 0.424 µg/mL and the IC50 (pseudovirus neutralization) [34] was over 50 µg/mL. It also gave an IC50 (neutralization) [35] of 0.346 µg/mL, an IC50 (pseudovirus neutralization) [36] of 0.387 µg/mL and an IC50 [37] of 0.1 µg/mL. For the same substance, the IC50 (pseudovirus neutralization) [38] was over 50 µg/mL, the IC50 (pseudovirus neutralization) [39] was 1.11 µg/mL and the IC50 (neutralization) [40] was 0.644 µg/mL. It also gave an IC50 (pseudovirus neutralization) [41] of 4.65 µg/mL, an IC50 (pseudovirus neutralization) [42] of 0.515 µg/mL and an IC50 [43] of 0.553 µg/mL. The IC50 (pseudovirus neutralization) [44] was 0.252 µg/mL.

1496_C09 (PG9) (TCN-109) (antibody) was tested, and the IC50 (pseudovirus neutralization) [1] was 0.038 µg/mL, the IC50 (pseudovirus neutralization) [4] was 0.164 µg/mL and the IC50 [5] was 0.104 µg/mL. For the same substance, the IC50 [6] was 1.98 µg/mL, the IC50 [7] was 19.3 µg/mL and the IC50 [8] was 6.6 µg/mL. The IC50 [11] was 3.44 µg/mL, the IC50 (neutralization) [13] was 1.86 µg/mL and the IC50 [14] was 14.6 µg/mL. For the same substance, the IC50 (pseudovirus neutralization) [15] was 0.023 µg/mL, the IC50 (pseudovirus neutralization) [19] was 0.038 µg/mL and the IC50 (µg/mL), pseudovirus neutralization [22] was 0.022 µg/mL. It also gave an IC50, TZM-bl pseudovirus neutralization [45] of 0.006 µg/mL, an IC50 (µg/mL), pseudovirus neutralization [30] of 0.346 µg/mL and an IC50 [31] of 1.48 µg/mL. It also gave an IC50 (pseudovirus neutralization) [34] of 1.8 µg/mL, an IC50 (neutralization) [35] of 0.371 µg/mL and an IC50 (pseudovirus neutralization) [41] of 0.063 µg/mL. It also gave an IC50, TZM-bl pseudovirus neutralization [46] of 0.2 µg/mL and an IC50 (pseudovirus neutralization) [44] of 0.021 µg/mL.
